Measured values taken from article PMC6720803, “Stability Evaluation and Stabilization of a Gastrin-Releasing Peptide Receptor (GRPR) Targeting Imaging Pharmaceutical” (Molecules, 2019).

Tests used:
[1] = type: physicochemical; details: pH 7.2
Method: A dose calibrator (Capintec, Florham Park, NJ, USA) and a Wizard 2480 gamma counter (Perkin Elmer, Waltham, MA, USA) were used for radioactivity measurements in the samples. A model 1100 Agilent HPLC system (Agilent, Wilmington, DE, USA) was used for the analysis of ^177Lu-labeled RM1 and AMBA and stability samples. The system consisted of a quaternary pump, degasser, column compartment capable of controlling the temperature at ambient or at 37 °C, auto-injector, a multiwavelength detector, and a Flow Ram radioisotope detector (Lab Logic, Sheffield, UK). The system was controlled by Laura software from Lab Logic. […] Zorbax Bonus RP C18 column (4.6 × 250 mm, 5 µm) was used for the analysis of ^177Lu-labeled AMBA and RM1 samples and for the separation of the ^177Lu-labeled AMBA and RM1 from their in vitro metabolic degradants in mouse, human, and canine sera stability samples.
(§1) All mass spectral analyses were performed at the Campus Chemical Instrument Center of the Ohio State University (Columbus, OH, USA) using a Bruker UltrafleXtreme MALDI-TOF MS system. […]

[2] = log D by shake-flask method; type: physicochemical
Method: The log D values were determined by a traditional shake-flask method. In a typical experiment, 10 μL sample of ^177Lu-labeled AMBA or RM1 with 0.037–0.052 GBq/mL radioconcentration and 814 GBq/mmol molar activity were added to a 4 mL mixture of 50:50 octanol:water. The mixture was shaken for one minute and mixed well. The sample was stored at room temperature for 5 min for separation of the two layers. Sample from each layer (25 μL) was added to a counting tube containing 250 μL water. The samples were mixed and counted. Triplicate measurements were made. The log D values were calculated using Equation (1): D = Counts in organic phase/Counts in the aqueous phase.(1)

[3] = system: gastrin-releasing peptide (GRP) receptors in a PC-3 cell line; design: method as in PMID 16818949, PMID 16909223; details: GRP receptors in PC-3 cell line; cited from earlier work
Method: The first proof-of-concept GRPR targeting study was conducted using a ^99mTc-labeled BBN (7–14) conjugate (RP527) for breast and prostate cancer imaging. […] Despite the general consensus rel ...

[4] = Stability of high-radioconcentration samples in acetate buffer without and with stabilizers; type: physicochemical; details: 2–8 °C; for half-life of degradation (t1/2): 0.1 M acetate buffer pH 5, high radioconcentration (0.74 GBq/mL), RP-HPLC, first-order fit, average (SD) n = 3
Method: The ^177Lu-labeled RM1 samples in acetate buffer, with 0.74 GBq/mL radio concentration, 10,175–12,765 GBq/mmol molar activity, and >99% RCP, were prepared for high-radioconcentration sample stability studies. […] Degradation of the high-radioconcentration sample in acetate buffer was at least 20 times faster than the degradation of the low-radioconcentration samples of ^177Lu-labeled RM1.
All mass spectral analyses were performed at the Campus Chemical Instrument Center of the Ohio State University (Columbus, OH, USA) using a Bruker UltrafleXtreme MALDI-TOF MS system. An RP-HPLC method, involving a gradient mobile phase system of 50 mM Tris acetate, 10 mM EDTA at pH 7.2 (solvent A), and acetonitrile (solvent B) with 1 mL/min flow rate, was used to monitor the extent of the reaction of ^177Lu/Lu with AMBA and RM1; for the purity analysis of RM1, AMBA, Lu-RM1, Lu-AMBA, and of the final ^177Lu-labeled samples; and for monitoring the degradation of ^177Lu-labeled RM1 or AMBA samples in acetate buffer, mouse, canine, and human sera. The EDTA was incorporated to detect any unreacted ^177Lu/Lu in the samples. The gradient program used was 0% B at the beginning, raising the percentage of B to 50% in 15 min, holding B at 50% for 4 min, followed by decreasing the percentage of B to 0% in 5 min and continuing 0% for an additional 9 min. The total run time was […].
All samples of ^177Lu-labeled RM1 were prepared in 0.1 M acetate buffer, pH 5–5.5. The ^177Lu-labeled RM1 samples, with a low radioconcentration, were stored at room temperature and at 2–8 °C storage conditions for 6 d for stability studies. The samples with a high radioconcentration, without and with a stabilizer (gentisic acid or ascorbic acid), were stored 2–8 °C for 2 and 7 d, respectively. For the effect of stabilizer (ascorbic acid or gentisic acid) on the stability of the high-radioconcentration samples of ^177Lu-labeled RM1, the samples were mixed with 500 µg of ascorbic or gentisic acid post radiolabeling. The stability or degradation of the samples was monitored by a reduction in the percent HPLC peak area of ^177Lu-labeled RM1 with time.
Degradation of ^177Lu-labeled RM1 or AMBA was monitored by a reduction in percent HPLC peak area with time. Half-lives of in vitro acetate buffer and serum degradation for each imaging pharmaceutical were calculated by fitting the percent peak remaining versus time to a first-order kinetics model (Equations (2) and (3)) using Excel or Graph Pad Prism version 5.03 software (Graph Pad Software, Inc., La Jolla, CA, USA). Pt = P0 exp (−k × t);(2) t1/2 = 0.693/k;(3) where Pt is the percent peak area at time t, Po is the percent peak area initially, t is the time elapsed, k is the first-order rate constant, and t1/2 is the half-life of degradation reaction. All degradation kinetics experiments were conducted in triplicate, and average (n = 3) values (standard deviation given in the parenthesis) of half-life are reported.

[5] = In vitro human serum stability; type: in vitro ADME; details: 50 µL labeled peptide + 450 µL human serum, 37 °C, RP-HPLC, read-out: degradation in human serum
Method: (§2) For mouse, canine, and human sera stability studies, 50 µL of ^177Lu-labeled RM1 or AMBA was mixed with 450 µL of mouse or canine or human serum. The mixtures were incubated at 37 °C for 24 h, samples were processed at each time point, and analyzed by an RP-HPLC method.
as §1
(§3) A literature procedure was followed for the serum stability studies of ^177Lu-labeled RM1 and AMBA [37, 43]. […] Several mixtures, containing 50 µL of ^177Lu-labeled RM1 or AMBA (usually 1.48 to 2.22 MBq radioactivity) and 450 µL of the mouse or human or canine serum, were prepared in HPLC vials and incubated at 37 °C in the block heater. […] The sample was then centrifuged at 6000 rpm for 15 min, and 200 µL of the supernatant solution was isolated and analyzed by an RP- HPLC method given above. A control experiment was conducted where samples of ^177Lu-labeled AMBA and RM1 were incubated in the water at 37 °C and analyzed by the RP-HPLC method.
(§4) Degradation of ^177Lu-labeled RM1 or AMBA was monitored by a reduction in percent HPLC peak area with time. […]

[6] = type: in vitro ADME, mouse
Method: as §2, §1, §3, §4

[7] = Stability of low-radioconcentration samples in acetate buffer; type: physicochemical; details: pH 5
Method: The final pH of the ^177Lu-labeled RM1 and AMBA, post radiolabeling, was usually ~5 to 5.5, and the acetate buffer concentration was 0.1 M. Consequently, the degradation kinetics of ^177Lu-labeled RM1 and AMBA were evaluated in this environment after storage at room temperature (25 °C) and 2–8 °C for 5 d. Both samples were analyzed using an RP-HPLC method at various time points.
as §1
All samples of ^177Lu-labeled RM1 were prepared in 0.1 M acetate buffer, pH 5–5.5. […] The stability or degradation of the samples was monitored by a reduction in the percent HPLC peak area of ^177Lu-labeled RM1 with time.
Degradation of ^177Lu-labeled RM1 or AMBA was monitored by a reduction in percent HPLC peak area with time. Half-lives of in vitro acetate buffer and serum degradation for each imaging pharmaceutical were calculated by fitting the percent peak remaining versus time to a first-order kinetics model (Equations (2) and (3)) using Excel or Graph Pad Prism version 5.03 software (Graph Pad Software, Inc., La Jolla, CA, USA). […]

PC-3 tumor = details: mouse, in vivo; cited from earlier work
Excerpt: Several classes of BBN antagonists have been designed by modifying the C-terminal residues of naturally amidated BBN agonists. […] Additionally, ^68Ga-, ^111In-, and ^18F-AlF-labeled NOTA-PEG2-RM26 (where RM26 = D-Phe-Gln-Trp-Ala-Val-Gly-His-Sta-L ...

GRPR = system: GRPR; design: method as in PMID 23763444, PMID 24312607; details: cell binding and internalization; cited from earlier work

## CC(C)C[C@H](NC(=O)C[C@H](O)[C@H](CC(C)C)NC(=O)[C@H](Cc1c[nH]cn1)NC(=O)CNC(=O)[C@@H](NC(=O)[C@H](C)NC(=O)[C@H](Cc1c[nH]c2ccccc12)NC(=O)[C@H](CCC(N)=O)NC(=O)[C@@H](Cc1ccccc1)NC(=O)c1ccc(NC(=O)CNC(=O)CN2CCN(CC(=O)O)CCN(CC(=O)O)CCN(CC(=O)O)CC2)cc1)C(C)C)C(N)=O [Lu-RM1]
[1]
  relative lipophilicity from retention times: slightly more lipophilic than Lu-AMBA
[2]
  log D: −2.46 (0.07)

## DO3A-CH2CO-G-[4-aminobenzyl]- Gln-Trp-Ala-Val-Gly-His-Leu-Met-NH2 [AMBA, GRPR agonist, BBN-like peptide chelator conjugate, gift from Bracco Diagnostics]
[3]
  IC50: 4.75 ± 0.25 nM

## CC(C)C[C@H](NC(=O)C[C@H](O)[C@H](CC(C)C)NC(=O)[C@H](Cc1c[nH]cn1)NC(=O)CNC(=O)[C@@H](NC(=O)[C@H](C)NC(=O)[C@H](Cc1c[nH]c2ccccc12)NC(=O)[C@H](CCC(N)=O)NC(=O)[C@@H](Cc1ccccc1)NC(=O)c1ccc(NC(=O)CNC(=O)CN2CCN(CC(=O)O)CCN(CC(=O)O)CCN(CC(=O)O)CC2)cc1)C(C)C)C(N)=O [^177Lu-labeled RM1, metal not drawn]
[4]; 500 µg ascorbic acid
  half-life of degradation (t1/2): 39.2 (0.6) h
[4]; 500 µg gentisic acid
  half-life of degradation (t1/2): 142.5 (1.4) h
[4]; no stabilizer
  half-life of degradation (t1/2): 8.5 (0.2) h
[4]; acetate buffer
  degradation of high- versus low-radioconcentration samples, times faster: at least 20 times
[4]; high radioconcentration, 500 µg gentisic acid
  improvement of stability versus no stabilizer: ~17 fold
[4]; high radioconcentration, ascorbic acid
  factor by which degradation is reduced versus control without stabilizer: ≥ 5
[5]
  metabolised at 24 h: < 10%
[6]
  degradation after 1440 min incubation: complete degradation
[7]
  degraded in acetate buffer within the same time period as the mouse serum study: 10-12%

## NOTA-PEG2-RM26 (where RM26 = D-Phe-Gln-Trp-Ala-Val-Gly-His-Sta-Leu-NH2) [^111In-labeled NOTA-PEG2-RM26, 111In-labeled NOTA-PEG2 conjugate of the GRPR antagonist peptide RM26]
PC-3 tumor
  specific tumor uptake: 5.7 ± 0.3 %ID/g
GRPR
  IC50: 1.24 ± 0.29 nM

## NOTA-PEG2-RM26 (where RM26 = D-Phe-Gln-Trp-Ala-Val-Gly-His-Sta-Leu-NH2) [^68Ga-labeled NOTA-PEG2-RM26, 68Ga-labeled NOTA-PEG2 conjugate of the GRPR antagonist peptide RM26]
PC-3 tumor
  specific tumor uptake: 8.1 ± 0.4 %ID/g
GRPR
  IC50: 0.91 ± 0.19 nM
